Measured values: the supplement of paper PMC12636428

Test system: Saccharomyces cerevisiae
Test: transcriptional activation domain activity (GFP:mCherry ratio, weighted mean of sorted bins, harmonized to initial dataset scale) (arbitrary fluorescence ratio units); higher = stronger transcriptional activation
Details: beta-estradiol 1 µM; induction time 4 h
Outline: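 In diploid yeast carrying a GFP reporter, barcoded protein tiles fused to an estradiol-inducible synthetic transcription factor were integrated at the URA3 locus. Cultures diluted 1:5 into SC with 1 uM beta-estradiol were kept at 30 °C for 4 hours, then sorted by GFP:mCherry ratio into 8 bins before barcode sequencing. Tiles with under 50 reads were excluded. The activation activity reported here is the read-weighted mean of bin median fluorescence, averaged across barcodes and linearly rescaled to the initial dataset.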

Sequence | transcriptional activation domain activity
YQTGYFSEAHFFLFFLFFYFRKSFSFQSNCISYTLPFGLLPIFFSTTIVLFWF | 66400
VRSTRRSLYFWSCLTCSWGIIIHLLFILLLNFKIFENYGALVVVHFTWCIYVV | 63300
VCVANIFVVFSLYSYTWIQAVVISLSILVYYAFIAIYAQFNTFLFAGQIRLFG | 70400
KGGSSPEEASAQSGGARSKEAKETGSSPTGGEVGKSGGKSNKSESSEEKSKDG | 19900
GLGFFFSFSLFNFFLHASSLYLLFLVTLLDLHYIFLVLSLTLFRVYVCFISAP | 43400
LIVVLILAPHPSLFRMLLRHHLQTLQQPFYFVIHLLVTYTLTFCAFSSLIICA | 53700
MNCRIVWNRCCGGLVPRFLLFLWCFGTVGYYRYFFSMGLGILLLWYILVLTTV | 50600
TMSMLCLEGFIIIYLLRETTLSFLDIIRCFSSMDPVALKLFVRCFLYTLVMCG | 77500
MYCMRYFVPLLLLPFPDAPPVFVILFLISFFLHQKPCIYCTLLLIALFCSTCY | 72300
RSAPGGRAGGRDGGSSSSSSDSSDEERETDGPVRKRRRTATSGARKAAPKSRP | 29200
VIIQLQKLFLVSISLKLVQRISSLNQLFKTSVASLPAIGNLFLLWATLFIFFA | 53000
FSLFGSFGCFGSLTLLLSLVMPVVLFVMLQWVMVWIWSCCFIFRLGMLTSFDV | 54500
GQTHVHFFPSLSHFYPLFFSFYNVLYPPCLYVRICPISLLLLLWWCFYLTFFC | 44100
KWVLSILEFFVVHGFFSVTRKNAKSSLQAIHHVPNPKFSDTMKQRCRDRLFTC | 51700
HFLGALIMLLGGYFHANLIHFGSYIWPSFLVWGLDRLIRLARVVYFNHLYFGF | 34500
PLWLAPNLVTLLGFFCILFNIFLLVILVPDLVGPGPSWLYYSFGLGVWMYSTM | 68600
MSPLDQVAEDDLSKRRKPHTKSRHGCIDCRRRRVKCGEEKPCCRTCVRRGVRC | 44400

Sequence | transcriptional activation domain activity
NVRLQVDQCAFVLEHCADATPGLINYIQWYYCSSTKPIVFILMCFWLLFLFGF | 40400
YRHLKPIMISSPVFCYLQLLGLIMCYLSLLVKVGKPSPSICISRQFLLPMGFV | 43200
SQKNGTSAANALVYGGFSHTVTQHTIKDVSIDGTWLEEEIDGFKSDTLGFHVD | 72800
QRMGSMVQRVQSTCRKCRGEGKILLEKDRCKKCAGRGIVKASKKLEVHVDKGM | 20000
VQALASGDFDAGDGGRTTRPLFRKQKGASLFFVTSVCDTVCLAWTVVVHGHRQ | 20600
WLPFPESLGSSYRMPGIEPYVDFVMGRILAKKLPELLDSCQILMLRWKCLCFI | 63200
WWLVKVTVSVLWVLDTFDMCLIFHILYWYLIINYGNPLSLANPIWSIILHVLV | 64800
KTTGPDARISHTSVQRFASYLGLRVALDRLRLQLAAATTIRHFISRLSRVLVF | 50600
MKEPVDDNVLQEPVPFEDFKFSFGMDPDFSFPLEPTLPTPQLSFMQDPFLLFP | 116000
QSLNFDLQTNSYYSNARGSDPSSYAIEGEYKTLATDDLGNILNLNYGETNEVI | 80000
HISCLIISVFLCELMVHIPLSTLFYVGLYFPVHFISTPGYFYFIYCILFQLFL | 47300
ANQCGEVDMLSRILLIVVTYLVILRRYRDALDIIERQALPMTLALGRPLWIGR | 62400
MLDLLVVHFPISNGLIEDNDLKVLVKAAVGVVLRKDMSLNRRLYAWLLGAQEG | 44600
CVCVGVGIGVGGLVLPLLFFLSFTSFSSLVTFLFSLSFPFSFFLFFLSFFLGL | 46000
TVLLDVALNGNPKELIVFILEHVYSLENDLTVLQQSLLVLVICKVYNETYPKQ | 67400
AYPTAAAVAPSTPKGKQRDVADELADLSVSKSSGSASKAKAKGSSPAAAKAAA | 14900
AAEDVEGEGEAKEKKSKKRRAEANGVGEGEEGERKKKKRKEKAVEQTEEEVKP | 34800
